Results as given in IntAct's records for PubMed 24302889.

B1: Retinoblastoma-related protein 1 (Arabidopsis thaliana (Mouse-ear cress)), Q9LKZ3 (parent)
chain: MEEVQPPVTPPIEPNGKRSEASLLDICEKVLSLDGSTCDEALKLFTETKRILSASMSNIGSGTREEVERFWFAFILYSVKRLSVRKEADGLSVSGDNEFNLCQILRALKLNIVDFFKELPQFVVKAGSVLGELYGADWENRLQAKEVQANFVHLSLLSKYYKRGFREFFLTYDANAEKNSANSSTYLLDSYRFGWLLFLALRNHAFSRFKDLVTCSNGVVSILAILIIHVPCRFRNFSIQDSSRFVKKGDKGVDLVASLCKIYDASEDELRIVIDKANNLVETILKKKPSPASECQTDKLDNIDPDGLTYFEDLLEETSISTSLITLEKDYYDGKGELDERVFINEEDSLLGSGSLSAGAVNITGVKRKIDALSSPARTFISPLSPHKSPAAKTNGISGATKLAATPVSTAMTTAKWLRTVISPLLPKPSPGLEHFLKSCDRDITNDVTRRAHIILEAIFPNSSLGAQCGGGSLQAVDLMDDIWAEQRRLEACKLYYRVLEAMCKAEAQILHANNLNSLLTNERFHRCMLACSAELVLATHKTITMLFPAVLERTGITAFDLSKVIESFIRHEDSLPRELRRHLNSLEERLLESMVWEKGSSMYNSLIVARPSLALEINQLGLLAEPMPSLDAIAALINFSDGANHASSVQKHETCPGQNGGIRSPKRLCTDYRSILVERNSFTSPVKDRLLALGNVKSKMLPPPLQSAFASPTRPNPGGGGETCAETGINIFFTKINKLAAVRINGMVERLQLSQQIRESVYCFFQHVLAQRTSLLFSRHIDQIILCCFYGVAKISQMSLTFREIIYNYRKQPQCKPLVFRSVYVDALQCRRQGRIGPDHVDIITFYNEIFIPAVKPLLVELGPVRNDRAVEANNKPEGQCPGSPKVSVFPSVPDMSPKKVSAVHNVYVSPLRGSKMDALISHSTKSYYACVGESTHAYQSPSKDLSAINNRLNNSSSNRKRTLNFDAEAGMVSDSMVANSLNLQNQNQNQNGSDASSSGGAAPLKTEPTDS
partner: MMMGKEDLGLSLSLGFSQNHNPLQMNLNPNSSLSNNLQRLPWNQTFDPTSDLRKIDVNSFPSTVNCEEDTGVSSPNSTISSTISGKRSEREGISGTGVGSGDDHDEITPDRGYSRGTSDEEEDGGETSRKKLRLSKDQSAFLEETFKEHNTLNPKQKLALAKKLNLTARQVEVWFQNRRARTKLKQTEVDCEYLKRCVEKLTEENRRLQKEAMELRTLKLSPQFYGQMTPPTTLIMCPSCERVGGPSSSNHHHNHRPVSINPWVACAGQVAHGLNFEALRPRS

Variants of: B1
Details: with hat2_arath HAT2, P46601

Variant | effect of a mutation on the interaction
N849F | disrupting interaction strength
